Assay results: patent US9909146B2, “Production of alkenes by enzymatic decarboxylation of 3-hydroxyalkanoic acids” (priority 2008, dated 2018)

Key:
[1] = target: T1, MDP decarboxylase of Saccharomyces cerevisiae (Saccharomyces cerevisiae, UniProt P32377); assay: Activity of protein extract (S. cerevisiae MDP decarboxylase) towards 3-hydroxy-3-methylbutyrate, with or without cofactor; format: biochemical
T1 construct: made in house; host or cells: E. coli BL21
T1 sequence (P32377 1-396): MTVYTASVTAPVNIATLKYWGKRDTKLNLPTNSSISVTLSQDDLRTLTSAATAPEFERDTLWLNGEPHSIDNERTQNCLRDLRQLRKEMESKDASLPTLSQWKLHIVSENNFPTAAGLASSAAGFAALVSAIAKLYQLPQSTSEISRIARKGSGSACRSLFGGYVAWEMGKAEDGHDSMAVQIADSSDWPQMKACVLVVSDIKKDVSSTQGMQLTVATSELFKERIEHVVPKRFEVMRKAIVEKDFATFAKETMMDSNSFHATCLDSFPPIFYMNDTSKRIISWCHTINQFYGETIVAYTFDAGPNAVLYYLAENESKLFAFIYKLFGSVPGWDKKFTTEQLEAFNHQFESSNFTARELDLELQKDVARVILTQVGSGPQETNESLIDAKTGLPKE
Experimental: The gene encoding MDP decarboxylase of Saccharomyces cerevisiae is synthesized from overlapping oligonucleotides and cloned in a pET plasmid (Novagen) allowing expression in bacteria. Said plasmid is then transformed by electroporation into bacterial strain BL21 (Invitrogen). The bacteria are streaked on a Petri dish containing ampicillin and incubated at 37° C. The next day, a bacterial colony is randomly selected and used to inoculate 50 ml of LB medium containing ampicillin. The culture is incubated for 24 h while shaking, after which the culture is centrifuged, the bacteria lysed by sonication, and a total protein extract prepared. An aliquot of the extract is loaded on an electrophoresis gel together with a protein extract from the same strain which has not been transformed, and with molecular weight markers. […]
Vials are sealed with a septum and crimped. […] After incubation, a gas syringe is used to collect the gas present in each vial, and the CO2 concentration in the samples is measured by gas chromatography. […] The presence of isobutylene in the gas sample from vial 6 is then measured by gas chromatography with infrared or flame ionization detection. […]
As in the previous example, isobutylene formation is measured by gas chromatography with infrared or flame ionization detection.

[2] = target: T2, enzyme SEQ ID NO: 6 (MDP decarboxylase) (Picrophilus torridus, UniProt Q6KZB1); assay: Effect of ATP co-substrate and Mg2+ cofactor on IBN production by enzyme SEQ ID NO: 6; format: biochemical; details: 1 mg/ml enzyme, 72 h at 30° C.
T2 construct: 6-Histidine tag (N); made in house; host or cells: E. coli BL21(DE3)
T2 sequence (Q6KZB1 1-324): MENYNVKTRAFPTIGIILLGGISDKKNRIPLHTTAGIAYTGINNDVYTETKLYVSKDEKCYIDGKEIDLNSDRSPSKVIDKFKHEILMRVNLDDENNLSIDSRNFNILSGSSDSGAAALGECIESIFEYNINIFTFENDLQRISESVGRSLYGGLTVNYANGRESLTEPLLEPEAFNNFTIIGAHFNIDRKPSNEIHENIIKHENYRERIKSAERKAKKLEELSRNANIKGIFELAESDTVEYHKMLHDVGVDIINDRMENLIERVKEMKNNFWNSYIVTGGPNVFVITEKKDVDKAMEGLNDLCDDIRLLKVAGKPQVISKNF
Experimental: Effect of ATP Co-Substrate
(§1) 200 mM HIV (to be specified)
(§2) Incubation 72 h at 30° C.
Other molecules, and in particular those containing a phosphoanhydride bond, could also be efficient co-substrates for the enzyme.
Other ions, and in particular other divalent ions, could be used as cofactor in place of or in addition to Mg^2+ ions.

[3] = target: T2, enzyme SEQ ID NO: 6 (MDP decarboxylase); assay: Substrate range test, Km of enzyme SEQ ID NO: 6 for HIV; format: biochemical; details: previously described conditions, incubation at 50° C., read-out: Km of the enzyme / affinity for HIV
Experimental: FIG. 13: IBN production according to concentration of HIV substrate.
A substrate range was tested in the previously described conditions, with incubation at 50° C. The Km of the enzyme is approximately 40 mM HIV.

[4] = Conversion of HIV to isobutylene (IBN) by purified enzyme SEQ ID NO: 6, GC measurement; format: biochemical, Picrophilus torridus
Experimental: The recombinant enzyme was purified as described in example 4.
The activity of the isolated enzyme was confirmed. The reaction was carried out in the following conditions:
After 72 h incubation at 30° C., the signal was measured by GC/MS. In the presence of the enzyme, IBN production was increased here by approximately 2.3-fold over background noise. The background noise observed here is in agreement with the organic chemistry literature, showing that in aqueous solution and at a temperature of around 100° C., 3-hydroxyisovaleric acid slowly decarboxylates to tert-butanol, which is partially dehydrated to isobutylene, following an equilibrium favorable to the formation of tert-butanol (Pressman and Luca, J. Am. Chem. Soc. 1940).
Enzymatic Activity According to Temperature
as §1
Incubation 72 h at different temperatures.
as §2
Optimal conditions were obtained with a pH of 5.5 in 100 mM citrate.
Optimization of Reaction Conditions
Optimum reaction conditions were sought, and the following conditions were retained:
Incubation 48 h at 50° C.

[5] = Screening of a library of 63 MDP decarboxylase family enzymes for activity on HIV; format: biochemical; details: 200 mM HIV, 10 mM ATP, pH 5.5 or 7.0, 37° C. for 72 h, GC/MS
From the text: A library of 63 genes encoding enzymes from the MDP decarboxylase family was obtained and tested for activity on HIV as substrate.
The genes encoding the mevalonate diphosphate (MDP) decarboxylase family EC 4.1.1.33 were cloned in the pET 25b vector (Novagen) in the case of eukaryotic genes and pET 22b (Novagen) for genes of prokaryotic origin, with a 6-Histidine tag at the N-terminal end immediately after the methionine initiation codon. Competent E. coli BL21(DE3) cells (Novagen) were transformed with these vectors by heat shock. The cells were grown with shaking (160 rpm) at 30° C. in TB medium containing 0.5 M sorbitol, 5 mM betain, 100 μg/ml ampicillin until reaching an OD at 600 nm comprised between 0.8 and 1. Isopropyl-B-D-thiogalactopyranoside (IPTG) was then added to a final concentration of 1 mM and protein expression was continued at 20° C. overnight (approximately 16 h). The cells were collected by centrifugation at 4° C., 10,000 rpm for 20 min and the pellets were frozen at −80° C. […]
The clarified bacterial lysates were loaded on a PROTINO-1000 Ni-IDA column (Macherey-Nagel) allowing adsorption of 6-His tag proteins. […] Protein was quantified by the Bradford method. […]
The gas present above the reactions was collected with a syringe equipped with a no-return mechanism. The gas sample was analyzed by gas chromatography (GC) coupled with mass spectrometry (MS). […]

CCOP(=O)(O)OP(=O)(O)O [ethyl diphosphate, reference compound]
amount of isobutylene produced over time with cofactor ([1]; 10 μl of 10 mg/l ethyl diphosphate added to 3-hydroxy-3-methylbutyrate reaction): markedly higher

Nc1ncnc2c1ncn2[C@@H]1O[C@H](COP(=O)(O)OP(=O)(O)OP(=O)(O)O)[C@@H](O)[C@H]1O [ATP]
enzyme activity (IBN production) in presence and absence of ATP ([2]; 0 or 10 mM ATP, 100 mM citrate pH 5.5, 200 mM HIV): only observed in the presence

CC(C)(O)CC(=O)O [HIV, 3-hydroxy-3-methylbutyrate]
Km [3]: ~40 mM | reaction of the enzyme preparation (CO2 detected by gas chromatography) ([1]; vial 6, 5 mM ATP, 10 mM MgCl2, 37° C., 4 hours to 3 days): significant reaction

[Mg+2] [Mg^2+]
enzyme activity (IBN production) in presence and absence of Mg2+ ([2]; 0 or 5 mM MgCl2, 100 mM citrate pH 5.5, 10 mM ATP, 200 mM HIV): improved

B1: Candidate 10: purified decarboxylase enzyme of SEQ ID NO: 6 from Picrophilus torridus, Q6KZB1, N-terminal His tag (protein)
chain: MENYNVKTRAFPTIGIILLGGISDKKNRIPLHTTAGIAYTGINNDVYTETKLYVSKDEKCYIDGKEIDLNSDRSPSKVIDKFKHEILMRVNLDDENNLSIDSRNFNILSGSSDSGAAALGECIESIFEYNINIFTFENDLQRISESVGRSLYGGLTVNYANGRESLTEPLLEPEAFNNFTIIGAHFNIDRKPSNEIHENIIKHENYRERIKSAERKAKKLEELSRNANIKGIFELAESDTVEYHKMLHDVGVDIINDRMENLIERVKEMKNNFWNSYIVTGGPNVFVITEKKDVDKAMEGLNDLCDDIRLLKVAGKPQVISKNF
modifications: N-terminal His tag
IBN production in presence of enzyme over background noise ([4]; 100 mM Tris-HCl, 10 mM MgCl2, 10 mM ATP, 20 mM KCl, pH 6.0, 3 mg/ml enzyme, 72 h at 30° C., GC/MS): approximately 2.3 fold | temperature optimum of enzymatic activity ([4]; 100 mM buffer, 50 mM KCl, 10 mM ATP, 200 mM HIV, 1 mg/ml enzyme, 72 h at different temperatures): approximately 50 °C | optimal pH of enzymatic activity ([4]; 100 mM citrate, 50 mM KCl, 10 mM ATP, 200 mM HIV, 1 mg/ml enzyme, 72 h at 30° C.): 5.5 | signal-to-noise ratio (measured in the absence of enzyme) for the conversion yield ([4]; in some conditions, example 5): approximately 100 fold | ratio of the signal over background noise ([4]; optimized: 100 mM citrate, 50 mM KCl, 40 mM ATP, 200 mM HIV, 1 mg/ml enzyme, 48 h at 50° C., GC-FID): approximately 100 | level of isobutylene (IBN) production in library screening [5]: highest levels
